Data from IntAct's records for PubMed 29892012.

B1: Coiled-coil alpha-helical rod protein 1 (Homo sapiens), Q8TD31 (parent)
chain: MFPPSGSTGLIPPSHFQARPLSTLPRMAPTWLSDIPLVQPPGHQDVSERRLDTQRPQVTMWERDVSSDRQEPGRRGRSWGLEGSQALSQQAEVIVRQLQELRRLEEEVRLLRETSLQQKMRLEAQAMELEALARAEKAGRAEAEGLRAALAGAEVVRKNLEEGSQRELEEVQRLHQEQLSSLTQAHEEALSSLTSKAEGLEKSLSSLETRRAGEAKELAEAQREAELLRKQLSKTQEDLEAQVTLVENLRKYVGEQVPSEVHSQTWELERQKLLETMQHLQEDRDSLHATAELLQVRVQSLTHILALQEEELTRKVQPSDSLEPEFTRKCQSLLNRWREKVFALMVQLKAQELEHSDSVKQLKGQVASLQEKVTSQSQEQAILQRSLQDKAAEVEVERMGAKGLQLELSRAQEARRRWQQQTASAEEQLRLVVNAVSSSQIWLETTMAKVEGAAAQLPSLNNRLSYAVRKVHTIRGLIARKLALAQLRQESCPLPPPVTDVSLELQQLREERNRLDAELQLSARLIQQEVGRAREQGEAERQQLSKVAQQLEQELQQTQESLASLGLQLEVARQGQQESTEEAASLRQELTQQQELYGQALQEKVAEVETRLREQLSDTERRLNEARREHAKAVVSLRQIQRRAAQEKERSQELRRLQEEARKEEGQRLARRLQELERDKNLMLATLQQEGLLSRYKQQRLLTVLPSLLDKKKSVVSSPRPPECSASAPVAAAVPTRESIKGSLSVLLDDLQDLSEAISKEEAVCQGDNLDRCSSSNPQMSS
partner: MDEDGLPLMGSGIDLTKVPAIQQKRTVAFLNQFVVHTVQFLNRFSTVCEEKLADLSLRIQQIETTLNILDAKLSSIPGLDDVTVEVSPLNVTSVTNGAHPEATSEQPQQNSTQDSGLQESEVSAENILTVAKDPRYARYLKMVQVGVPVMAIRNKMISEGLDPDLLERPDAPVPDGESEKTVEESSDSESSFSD
B2: Coiled-coil alpha-helical rod protein 1 (Homo sapiens), Q8TD31 (parent)
chain: B1 chain
partner: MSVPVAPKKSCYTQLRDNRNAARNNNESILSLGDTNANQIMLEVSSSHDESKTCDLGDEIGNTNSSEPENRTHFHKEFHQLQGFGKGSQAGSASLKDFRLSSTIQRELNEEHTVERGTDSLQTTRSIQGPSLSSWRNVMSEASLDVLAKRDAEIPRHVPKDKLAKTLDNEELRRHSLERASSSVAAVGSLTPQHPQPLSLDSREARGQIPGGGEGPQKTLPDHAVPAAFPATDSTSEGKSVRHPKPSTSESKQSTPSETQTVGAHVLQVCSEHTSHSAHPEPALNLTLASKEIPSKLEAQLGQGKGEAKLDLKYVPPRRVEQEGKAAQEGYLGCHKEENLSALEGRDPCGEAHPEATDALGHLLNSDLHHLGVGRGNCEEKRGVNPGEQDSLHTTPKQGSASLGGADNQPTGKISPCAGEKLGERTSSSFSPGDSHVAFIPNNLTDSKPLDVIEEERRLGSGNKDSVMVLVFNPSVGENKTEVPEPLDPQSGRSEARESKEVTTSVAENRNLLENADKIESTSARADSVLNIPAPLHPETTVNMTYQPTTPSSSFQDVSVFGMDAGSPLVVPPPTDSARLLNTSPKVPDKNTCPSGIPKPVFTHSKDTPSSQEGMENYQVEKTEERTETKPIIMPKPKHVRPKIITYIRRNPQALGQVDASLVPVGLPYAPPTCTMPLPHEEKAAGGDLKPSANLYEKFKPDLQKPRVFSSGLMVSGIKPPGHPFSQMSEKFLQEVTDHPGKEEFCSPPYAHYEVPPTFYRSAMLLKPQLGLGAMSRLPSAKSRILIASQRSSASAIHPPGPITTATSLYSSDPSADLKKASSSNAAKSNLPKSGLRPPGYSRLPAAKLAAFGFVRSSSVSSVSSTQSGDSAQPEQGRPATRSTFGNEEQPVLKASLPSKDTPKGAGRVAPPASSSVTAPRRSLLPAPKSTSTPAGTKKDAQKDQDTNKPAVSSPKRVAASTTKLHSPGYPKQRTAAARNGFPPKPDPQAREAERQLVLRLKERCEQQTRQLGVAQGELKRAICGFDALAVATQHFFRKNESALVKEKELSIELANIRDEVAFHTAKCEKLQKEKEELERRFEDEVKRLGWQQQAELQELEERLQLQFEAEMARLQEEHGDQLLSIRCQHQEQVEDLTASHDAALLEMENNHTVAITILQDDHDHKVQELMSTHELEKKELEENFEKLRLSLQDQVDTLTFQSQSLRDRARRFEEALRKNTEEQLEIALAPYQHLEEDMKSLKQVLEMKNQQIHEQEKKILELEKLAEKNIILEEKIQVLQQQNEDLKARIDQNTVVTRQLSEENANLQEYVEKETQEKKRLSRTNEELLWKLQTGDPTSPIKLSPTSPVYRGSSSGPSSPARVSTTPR
B3: Coiled-coil alpha-helical rod protein 1 (Homo sapiens), Q8TD31 (parent)
chain: B1 chain
partner: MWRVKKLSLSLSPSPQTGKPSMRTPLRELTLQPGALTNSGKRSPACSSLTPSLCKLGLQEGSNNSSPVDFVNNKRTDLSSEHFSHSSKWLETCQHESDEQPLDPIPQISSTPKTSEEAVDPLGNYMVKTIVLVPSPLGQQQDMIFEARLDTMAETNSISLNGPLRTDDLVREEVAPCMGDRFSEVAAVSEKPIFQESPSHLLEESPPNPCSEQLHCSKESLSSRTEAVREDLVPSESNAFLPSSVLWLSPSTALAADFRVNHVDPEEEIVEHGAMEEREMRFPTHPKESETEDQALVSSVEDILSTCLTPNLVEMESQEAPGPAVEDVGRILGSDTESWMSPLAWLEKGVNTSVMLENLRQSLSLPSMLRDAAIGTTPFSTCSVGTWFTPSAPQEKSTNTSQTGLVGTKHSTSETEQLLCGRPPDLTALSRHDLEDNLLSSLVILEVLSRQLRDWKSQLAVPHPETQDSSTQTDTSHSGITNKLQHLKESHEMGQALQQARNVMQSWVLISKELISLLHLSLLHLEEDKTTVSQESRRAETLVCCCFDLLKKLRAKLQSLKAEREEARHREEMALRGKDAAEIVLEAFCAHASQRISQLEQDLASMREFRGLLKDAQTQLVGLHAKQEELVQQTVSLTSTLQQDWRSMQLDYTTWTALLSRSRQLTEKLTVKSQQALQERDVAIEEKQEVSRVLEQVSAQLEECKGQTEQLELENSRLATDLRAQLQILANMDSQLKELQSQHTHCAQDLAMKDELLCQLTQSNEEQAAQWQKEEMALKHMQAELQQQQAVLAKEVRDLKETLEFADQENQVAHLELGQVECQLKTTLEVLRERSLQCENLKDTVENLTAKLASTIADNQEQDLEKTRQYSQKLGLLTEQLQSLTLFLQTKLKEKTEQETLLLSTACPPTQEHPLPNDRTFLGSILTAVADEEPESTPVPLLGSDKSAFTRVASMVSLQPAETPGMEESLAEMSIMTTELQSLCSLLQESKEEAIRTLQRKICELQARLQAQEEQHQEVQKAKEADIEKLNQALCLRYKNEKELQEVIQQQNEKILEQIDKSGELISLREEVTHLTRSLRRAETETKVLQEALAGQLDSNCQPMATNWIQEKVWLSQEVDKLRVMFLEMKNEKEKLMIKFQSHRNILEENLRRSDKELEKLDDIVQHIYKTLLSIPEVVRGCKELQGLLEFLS
B4: Coiled-coil alpha-helical rod protein 1 (Homo sapiens), Q8TD31 (parent)
chain: B1 chain
partner: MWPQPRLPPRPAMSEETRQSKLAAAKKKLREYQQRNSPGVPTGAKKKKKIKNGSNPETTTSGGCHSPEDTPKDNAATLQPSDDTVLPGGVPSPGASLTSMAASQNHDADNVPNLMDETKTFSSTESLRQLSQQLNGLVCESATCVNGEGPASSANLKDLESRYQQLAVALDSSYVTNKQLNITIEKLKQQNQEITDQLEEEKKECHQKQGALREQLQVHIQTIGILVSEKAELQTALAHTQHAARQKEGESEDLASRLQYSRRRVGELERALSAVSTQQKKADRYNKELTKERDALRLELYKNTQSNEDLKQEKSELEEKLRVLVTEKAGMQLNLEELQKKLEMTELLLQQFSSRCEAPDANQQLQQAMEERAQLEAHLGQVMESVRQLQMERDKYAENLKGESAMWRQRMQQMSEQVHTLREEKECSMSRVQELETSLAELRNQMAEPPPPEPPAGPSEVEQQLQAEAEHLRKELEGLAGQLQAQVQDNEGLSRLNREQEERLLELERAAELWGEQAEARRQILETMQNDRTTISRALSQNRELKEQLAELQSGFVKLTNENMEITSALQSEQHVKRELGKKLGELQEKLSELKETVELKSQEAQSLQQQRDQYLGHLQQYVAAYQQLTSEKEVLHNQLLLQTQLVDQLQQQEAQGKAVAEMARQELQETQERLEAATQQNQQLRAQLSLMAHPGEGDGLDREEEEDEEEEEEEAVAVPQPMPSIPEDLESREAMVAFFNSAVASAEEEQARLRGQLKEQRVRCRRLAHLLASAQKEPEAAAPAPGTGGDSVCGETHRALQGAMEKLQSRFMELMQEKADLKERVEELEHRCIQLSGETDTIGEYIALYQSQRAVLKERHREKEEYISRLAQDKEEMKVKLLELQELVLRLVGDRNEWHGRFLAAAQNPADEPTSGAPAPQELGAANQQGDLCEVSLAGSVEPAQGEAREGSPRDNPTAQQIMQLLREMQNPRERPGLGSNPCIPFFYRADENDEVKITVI

Variants of: B1
Conditions: with wasc3_human WASHC3, Q9Y3C0

Variant | effect of a mutation on the interaction
W337R | disrupting interaction strength

Variants of: B2
Conditions: with mtus2_human MTUS2, Q5JR59

Variant | effect of a mutation on the interaction
W337R | disrupting interaction strength

Variants of: B3
Conditions: with spag5_human SPAG5, Q96R06

Variant | effect of a mutation on the interaction
W337R | disrupting interaction strength

Variants of: B4
Conditions: with goga2_human GOLGA2, Q08379

Variant | effect of a mutation on the interaction
W337R | disrupting interaction strength
